The results in this text go back to PMC5548808, “Structural and functional insights into the lipopolysaccharide ABC transporter LptB2FG” (Nature Communications, 2017).

To fix the notation:
B1: LptB of E. coli (in purified LptB2CFG) (natural protein, UniProt P0A9V1 1-241, looked up)
chain: MATLTAKNLAKAYKGRRVVEDVSLTVNSGEIVGLLGPNGAGKTTTFYMVVGIVPRDAGNIIIDDDDISLLPLHARARRGIGYLPQEASIFRRLSVYDNLMAVLQIRDDLSAEQREDRANELMEEFHIEHLRDSMGQSLSGGERRRVEIARALAANPKFILLDEPFAGVDPISVIDIKRIIEHLRDSGLGVLITDHNVRETLAVCERAYIVSQGHLIAHGTPTEILQDEHVKRVYLGEDFRL
notes: in the K. pneumoniae construct and in the E. coli pTRC99a-Kan LptBFG plasmid it is an 8xHis at the C terminus of LptB

Assay in all cases: SEC; co-expressed E. coli LptB2CFG complexes (wild type and mutants) purified as the K. pneumoniae complex; HiLoad 16/600 Superdex 200 pg, 20 mM Tris-Cl pH 7.8, 150 mM NaCl, 5% glycerol, 0.05% DDM
Holding throughout (conditions): both partners purified
(In general: SEC sorts molecules by how far they enter the pores of the column.)

In experiment [1] the target is T1, LptF of E. coli (in purified wild-type LptB2CFG) (E. coli, UniProt P0AF98 1-366).
T1 construct: LptF, E. coli, transmembrane subunit of the LptB2CFG complex
T1 sequence (looked up): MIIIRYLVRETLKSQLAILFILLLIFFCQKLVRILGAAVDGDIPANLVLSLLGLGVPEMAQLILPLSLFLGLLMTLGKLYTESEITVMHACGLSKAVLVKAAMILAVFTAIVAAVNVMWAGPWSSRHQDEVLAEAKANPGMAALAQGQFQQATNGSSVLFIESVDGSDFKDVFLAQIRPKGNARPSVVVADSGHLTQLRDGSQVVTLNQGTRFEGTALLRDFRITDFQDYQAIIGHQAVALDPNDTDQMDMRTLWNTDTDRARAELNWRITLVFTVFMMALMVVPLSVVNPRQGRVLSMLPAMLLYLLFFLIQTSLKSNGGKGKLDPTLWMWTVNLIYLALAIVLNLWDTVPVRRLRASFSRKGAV

Experiment [2] addresses T2, LptG of E. coli (in purified wild-type LptB2CFG) (E. coli, UniProt P0ADC6 1-360).
T2 construct: LptG, E. coli, transmembrane subunit of the LptB2CFG complex
T2 sequence (looked up): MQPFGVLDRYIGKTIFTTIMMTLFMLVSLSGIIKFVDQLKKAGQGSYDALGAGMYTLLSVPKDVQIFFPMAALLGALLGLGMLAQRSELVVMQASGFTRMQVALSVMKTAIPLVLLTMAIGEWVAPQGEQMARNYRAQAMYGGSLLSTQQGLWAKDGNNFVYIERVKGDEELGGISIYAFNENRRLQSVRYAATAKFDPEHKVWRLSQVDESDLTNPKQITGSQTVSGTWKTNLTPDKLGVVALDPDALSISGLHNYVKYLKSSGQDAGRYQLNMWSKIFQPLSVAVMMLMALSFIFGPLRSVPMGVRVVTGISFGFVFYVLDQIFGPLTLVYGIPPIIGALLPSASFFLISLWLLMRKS

Experiment [3] deals with T3, LptF F26D/L62D of E. coli (in purified mutant LptB2CFG) (E. coli, UniProt P0AF98 1-366, F26D | L62D).
T3 construct: LptF, E. coli, double mutant F26D/L62D
T3 sequence (looked up): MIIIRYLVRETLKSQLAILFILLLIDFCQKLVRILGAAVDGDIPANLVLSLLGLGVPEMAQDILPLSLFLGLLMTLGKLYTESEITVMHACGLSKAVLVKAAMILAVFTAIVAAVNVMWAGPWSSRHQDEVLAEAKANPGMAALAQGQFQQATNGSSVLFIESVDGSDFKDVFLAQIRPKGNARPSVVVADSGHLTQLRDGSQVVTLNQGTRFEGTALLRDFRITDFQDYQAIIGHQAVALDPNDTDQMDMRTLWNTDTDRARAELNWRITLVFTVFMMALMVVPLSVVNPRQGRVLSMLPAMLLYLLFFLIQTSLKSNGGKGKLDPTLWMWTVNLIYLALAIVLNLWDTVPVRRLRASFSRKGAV

The target in experiment [4] is T4, LptG K34E/R136E of E. coli (in purified mutant LptB2CFG) (E. coli, UniProt P0ADC6 1-360, K34E | R136E).
T4 construct: LptG, E. coli, double mutant K34E/R136E
T4 sequence (looked up): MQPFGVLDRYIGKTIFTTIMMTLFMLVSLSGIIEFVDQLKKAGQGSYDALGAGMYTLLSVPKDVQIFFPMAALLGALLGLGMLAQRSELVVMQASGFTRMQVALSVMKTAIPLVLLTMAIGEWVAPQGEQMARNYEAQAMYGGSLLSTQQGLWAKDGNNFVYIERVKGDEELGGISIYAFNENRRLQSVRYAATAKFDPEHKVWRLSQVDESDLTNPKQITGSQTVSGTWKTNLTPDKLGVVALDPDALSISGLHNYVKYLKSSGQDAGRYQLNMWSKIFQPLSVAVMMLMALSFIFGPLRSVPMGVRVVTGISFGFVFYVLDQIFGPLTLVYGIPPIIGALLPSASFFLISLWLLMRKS

The target of experiment [5] is B1.

As for B1, the binding result in experiment [1], in experiment [2], in experiment [3] and in experiment [4] was “binds” in each case.

B2: LptC of E. coli (in purified LptB2CFG) (natural protein, UniProt P0ADV9 1-191, looked up)
chain: MSKARRWVIIVLSLAVLVMIGINMAEKDDTAQVVVNNNDPTYKSEHTDTLVYNPEGALSYRLIAQHVEYYSDQAVSWFTQPVLTTFDKDKIPTWSVKADKAKLTNDRMLYLYGHVEVNALVPDSQLRRITTDNAQINLVTQDVTSEDLVTLYGTTFNSSGLKMRGNLRSKNAELIEKVRTSYEIQNKQTQP
notes: LptC, E. coli, inner membrane protein of the LptB2CFG complex; The construct of LptC is not described
On to B2, for which the binding result in experiment [5] is listed as “binds”.
